The stoichiometry N is the number of molecules, sites or subunits per partner or assembly.

The results in this text go back to publication PMC4118829.

Assay [1] concerns the target N-terminal domain of the ectodomain of Hepatitis C virus envelope glycoprotein E1, N43Q (Hepatitis C virus). Briefly: SEC; size-exclusion chromatography; data not shown. (In general: SEC sorts molecules by how far they enter the pores of the column.)
For assay [2] the target is unchanged. Put plainly: reducing and nonreducing SDS-PAGE; 15% reducing (R) and nonreducing (NR) SDS-PAGE gels of purified deglycosylated HCV nE1; covalent dimer.

On to “N-terminal domain of the ectodomain of Hepatitis C virus envelope glycoprotein E1, N43Q (domain or fragment)”, for which the stoichiometry N in assay [1] and in assay [2] was 2 in each case.
